From US8609357B2, “Methods for detecting LP-PLA2 activity and inhibition of LP-PLA2 activity” (Glaxo Group Limited, priority 2004, dated 2013)
Where “and” joins values, the source holds several entries; their conditions need not be identical. Equal entries are not always repeated.

Columns and labels:
[1] = Plasma level of inhibitor in clinical studies (pharmacokinetics); details: human subjects, administered in vivo
[2] = target: T1, Lp-PLA2 (Homo sapiens, UniProt Q13093); assay: Auto PAF AH assay (Azwell kit, Olympus Au640); type: biochemical
T1 construct: Unless otherwise indicated all plasma samples were collected from human and are human plasma; from tissue; host or cells: human blood plasma (EDTA)
T1 sequence (Q13093 22-441): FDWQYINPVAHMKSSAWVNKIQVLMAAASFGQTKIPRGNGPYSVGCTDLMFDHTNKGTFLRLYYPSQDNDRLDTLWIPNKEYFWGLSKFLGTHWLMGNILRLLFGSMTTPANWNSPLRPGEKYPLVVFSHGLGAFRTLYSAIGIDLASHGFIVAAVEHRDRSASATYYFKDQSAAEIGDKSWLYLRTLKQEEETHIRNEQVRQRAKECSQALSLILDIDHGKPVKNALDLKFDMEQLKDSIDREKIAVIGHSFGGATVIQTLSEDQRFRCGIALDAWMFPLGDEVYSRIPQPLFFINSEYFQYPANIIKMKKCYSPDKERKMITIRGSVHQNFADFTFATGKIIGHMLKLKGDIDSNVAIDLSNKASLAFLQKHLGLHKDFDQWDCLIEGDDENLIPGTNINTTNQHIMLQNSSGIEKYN
Experimental: The Auto PAF AH assay kit, manufactured by Azwell (Osaka, Japan), is commercially available in the United States through Karlan Research Products Corporation (Santa Rosa, Calif.).
Azwell Auto PAF-AH Assay Kit:
Prepare the following reagents: • R1: Use this buffer solution as supplied in Azwell Auto PAF AH assay kit. Store at 4° C. Protect from light. • R2: Prepare the R2 working solution by mixing R2A and R2B (supplied in Azwell Auto PAF AH assay kit) in the proportion of 19:1. Store at 4° C. Protect from light. • 3. […] Briefly centrifuge to spin down fibrin clots/particles in the plasma. • 4. Place Sarstedt tubes containing plasma samples onto sample tubes that fit the instrument. Run plasma samples through the Au640 analyzer. After choosing the PAF AH assay program, the analytical procedure described below is performed automatically: • Test sample (2 μL)+R1 (240 μL), 37° C., 5 minutes [0-5 minutes] • Add R2 (80 μL), 37° C., 5 minutes [5-10 minutes] • Measure the absorbance at 410 nm and 480 nm [6-8 minutes] • Calculate PAF AH activity (IU/L) • 5.

[3] = target: T2, recombinant human Lp-PLA2 protein (hrLp-PLA2) (Homo sapiens, UniProt Q13093); assay: Modified colorimetric assay of recombinant human Lp-PLA2 protein (dynamic range); type: biochemical; details: for Activity (assay dynamic range): hrLp-PLA2 14.6-3750 ng/ml, […] substrate/45 μL
T2 construct: made in house
T2 sequence (Q13093 22-441): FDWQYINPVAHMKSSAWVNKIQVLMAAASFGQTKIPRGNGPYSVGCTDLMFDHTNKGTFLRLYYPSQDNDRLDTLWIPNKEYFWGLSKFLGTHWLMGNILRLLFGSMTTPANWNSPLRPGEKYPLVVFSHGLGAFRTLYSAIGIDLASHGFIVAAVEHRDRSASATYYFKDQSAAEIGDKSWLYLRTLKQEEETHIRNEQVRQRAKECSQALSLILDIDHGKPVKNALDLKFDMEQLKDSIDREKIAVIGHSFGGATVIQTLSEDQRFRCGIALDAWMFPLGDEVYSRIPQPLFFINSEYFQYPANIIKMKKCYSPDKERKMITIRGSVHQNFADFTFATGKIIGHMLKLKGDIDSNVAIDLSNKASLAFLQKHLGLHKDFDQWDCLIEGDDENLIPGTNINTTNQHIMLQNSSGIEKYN
Experimental: (§1) Assay dynamic range was defined by using both recombinant human Lp-PLA2 protein (hrLp-PLA2) generated in-house and Lp-PLA2 protein purified from human plasma in-house.
hrLp-PLA2 was serially diluted and 25 μL of each diluted hrLp-PLA2 were assayed by a modified drug-sensitive colorimetric assay (data shown in Table 10). […]. (see Table 10).
[…]. Therefore, such conditions with lower substrate concentration and higher sample volume could be used when higher measurable in vivo inhibition is desired while the range of Lp-PLA2 activity for test samples is limited or could be compromised. […]. Earlier and shorter reaction time could be considered to use in activity calculation to improve assay dynamic range when such conditions are used.

[4] = target: T3, hLp-PLA2 purified from plasma (Homo sapiens, UniProt Q13093); assay: Modified colorimetric assay of Lp-PLA2 purified from human plasma (dynamic range); type: biochemical
T3 construct: Lp-PLA2 protein purified from human plasma in-house; from tissue; host or cells: human plasma, purified in-house
T3 sequence (Q13093 22-441): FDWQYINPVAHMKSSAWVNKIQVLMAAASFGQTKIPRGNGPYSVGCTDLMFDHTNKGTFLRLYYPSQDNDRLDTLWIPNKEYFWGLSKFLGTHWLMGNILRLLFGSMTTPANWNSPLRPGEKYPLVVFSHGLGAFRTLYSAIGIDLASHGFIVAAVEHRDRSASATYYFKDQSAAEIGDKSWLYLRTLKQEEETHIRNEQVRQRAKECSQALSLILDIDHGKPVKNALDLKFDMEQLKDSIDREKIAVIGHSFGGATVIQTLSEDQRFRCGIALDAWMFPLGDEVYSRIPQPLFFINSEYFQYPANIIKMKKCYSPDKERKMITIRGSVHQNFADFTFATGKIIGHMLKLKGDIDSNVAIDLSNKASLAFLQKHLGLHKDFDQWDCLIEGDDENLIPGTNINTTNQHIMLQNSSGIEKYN
Experimental: as §1
hLp-PLA2 purified from plasma was also serially diluted and 25 pt of each dilution were assayed by a modified drug-sensitive colorimetric assay (data shown in Table 11). […] The relatively lower upper limit of the dynamic range determined by purified hLp-PLA2 may be resulted from interference factors possibly present in the purified product and/or introduced during purification process. Limited availability of such purified protein prevents further investigation.

CCN(CC)CCN(Cc1ccc(-c2ccc(C(F)(F)F)cc2)cc1)C(=O)Cn1c(SCc2ccc(F)cc2)nc(=O)c2c1CCC2 [Formula II, 1-(N-(2-(Diethylamino)ethyl)-N-(4-(4-trifluoromethylphenyl)benzyl)-aminocarbonylmethyl)-2-(4-fluorobenzyl)thio-5,6-trimethylenepyrimidin-4-one bitartrate]
peak plasma level [1]: 90 ng/mL

CCCCCCCCCCCCCC(=O)OCC(COP(=O)([O-])OCC[N+](C)(C)C)OC(=O)CCC(=O)Oc1ccc([N+](=O)[O-])cc1 (stereo not shown) [substrate, reference compound]
Km ([2]; plasma as the enzyme source, Auto PAF AH protocol): ~200 µM and 200 µM

COCCN1CCC(N(Cc2ccc(-c3ccc(C(F)(F)F)cc3)cc2)C(=O)Cn2c(SCc3cccc(F)c3F)cc(=O)c3ccccc32)CC1 [Formula I]
drug inhibition by Auto PAF AH assay ([2]; four subjects, 80-240 mg in vivo): failed to indicate drug inhibition
Lp-PLA2 inhibition measured by Auto PAF AH assay ([2]; six drug-treated human subjects, 120-240 mg in vivo): not apparent

B1: hrLp-PLA2: recombinant human Lp-PLA2 protein generated in-house (protein, UniProt Q13093 22-441, looked up)
Platelet-activating factor …: FDWQYINPVAHMKSSAWVNKIQVLMAAASFGQTKIPRGNGPYSVGCTDLMFDHTNKGTFLRLYYPSQDNDRLDTLWIPNKEYFWGLSKFLGTHWLMGNILRLLFGSMTTPANWNSPLRPGEKYPLVVFSHGLGAFRTLYSAIGIDLASHGFIVAAVEHRDRSASATYYFKDQSAAEIGDKSWLYLRTLKQEEETHIRNEQVRQRAKECSQALSLILDIDHGKPVKNALDLKFDMEQLKDSIDREKIAVIGHSFGGATVIQTLSEDQRFRCGIALDAWMFPLGDEVYSRIPQPLFFINSEYFQYPANIIKMKKCYSPDKERKMITIRGSVHQNFADFTFATGKIIGHMLKLKGDIDSNVAIDLSNKASLAFLQKHLGLHKDFDQWDCLIEGDDENLIPGTNINTTNQHIMLQNSSGIEKYN
Activity ([3]; hrLp-PLA2 4.88 ng/mL, […] Substrate/45 μL): 2.71 nmol/min/mL
Activity ([3]; hrLp-PLA2 9.77 ng/mL, […] Substrate/45 μL): 5.13 nmol/min/mL
Activity ([3]; hrLp-PLA2 19.53 ng/mL, […] Substrate/45 μL): 9.27 nmol/min/mL
Activity ([3]; hrLp-PLA2 39.06 ng/mL, […] Substrate/45 μL): 17.81 nmol/min/mL
Activity ([3]; hrLp-PLA2 78.13 ng/mL, […] Substrate/45 μL): 30.16 nmol/min/mL
Activity ([3]; hrLp-PLA2 156.25 ng/mL, […] Substrate/45 μL): 51.62 nmol/min/mL
Activity ([3]; hrLp-PLA2 312.50 ng/mL, […] Substrate/45 μL): 84.14 nmol/min/mL
Activity ([3]; hrLp-PLA2 625.00 ng/mL, […] Substrate/45 μL): 109.44 nmol/min/mL
Activity ([3]; hrLp-PLA2 1250.00 ng/mL, […] Substrate/45 μL): 93.90 nmol/min/mL
Activity ([3]; hrLp-PLA2 1650 ng/ml, 25 uL assayed): 30.0 nmol/min/mL
Activity ([3]; hrLp-PLA2 3300 ng/ml, 25 uL assayed): 69.7 nmol/min/mL
Activity ([3]; hrLp-PLA2 6600 ng/ml, 25 uL assayed): 169.0 nmol/min/mL
Activity ([3]; hrLp-PLA2 14666 ng/ml, 25 uL assayed): 413.7 nmol/min/mL
Activity (assay dynamic range) ([3]; reaction time used for calculation 30 sec-0): 3.4 to 210 nmol/min/mL
Activity (assay dynamic range) ([3]; reaction time used for calculation 1 min-0): 3.2 to 196.5 nmol/min/mL

B2: Purified hLp-PLA2 (protein, UniProt Q13093 22-441, looked up)
Platelet-activating factor …: FDWQYINPVAHMKSSAWVNKIQVLMAAASFGQTKIPRGNGPYSVGCTDLMFDHTNKGTFLRLYYPSQDNDRLDTLWIPNKEYFWGLSKFLGTHWLMGNILRLLFGSMTTPANWNSPLRPGEKYPLVVFSHGLGAFRTLYSAIGIDLASHGFIVAAVEHRDRSASATYYFKDQSAAEIGDKSWLYLRTLKQEEETHIRNEQVRQRAKECSQALSLILDIDHGKPVKNALDLKFDMEQLKDSIDREKIAVIGHSFGGATVIQTLSEDQRFRCGIALDAWMFPLGDEVYSRIPQPLFFINSEYFQYPANIIKMKKCYSPDKERKMITIRGSVHQNFADFTFATGKIIGHMLKLKGDIDSNVAIDLSNKASLAFLQKHLGLHKDFDQWDCLIEGDDENLIPGTNINTTNQHIMLQNSSGIEKYN
Activity ([4]; Purified hLp-PLA2 6.25 ng/ml): 2.47 nmol/min/mL
Activity ([4]; Purified hLp-PLA2 12.50 ng/ml): 5.06 nmol/min/mL
Activity ([4]; Purified hLp-PLA2 50.00 ng/ml): 25.68 nmol/min/mL
Activity ([4]; Purified hLp-PLA2 100.00 ng/ml): 54.34 nmol/min/mL
Activity ([4]; Purified hLp-PLA2 200.00 ng/ml): 119.34 nmol/min/mL
Activity ([4]; Purified hLp-PLA2 400.00 ng/ml): 212.95 nmol/min/mL
Activity ([4]; Purified hLp-PLA2 600.00 ng/ml): 273.60 nmol/min/mL
Activity ([4]; Purified hLp-PLA2 800.00 ng/ml): 324.85 nmol/min/mL
Activity ([4]; Purified hLp-PLA2 1000.00 ng/ml): 338.51 nmol/min/mL
